{
  "source": "paper PMC5866549",
  "target": "mucin (purified mucins)",
  "test": "AFM force spectroscopy",
  "note": "Where “and” joins values, the source holds several entries; their conditions need not be identical. Equal entries are not always repeated.",
  "data": [
    {"substance": "SRRP_(53608)-BR, binding region of the serine-rich repeat protein from Lactobacillus reuteri ATCC 53608 (domain or fragment)", "values": [
      {"measurement": "modal adhesion force", "result": 105, "unit": "pN"},
      {"measurement": "modal adhesion force (bimodal)", "result": "72 pN and 120 pN"}
    ]}
  ]
}
